This passage reports self-cleavage results from the RNAGym collection of RNA variant scans (doi:10.7554/elife.80360).

B1: HDV Ribozyme (parent)
chain: GGCCGGCAUGGUCCCAGCCUCCUCGCUGGCGCCGGCUGGGCAACAUUCCGAGGGGACCGUCCCCUCGGUAAUGGCGAAUGGGACCCA

The variants in this data set derive from B1. Put plainly: self-cleavage, relative activity (ratio to wild type); higher = more cleavage; co-transcriptional.
Turning to C18A U37A, the self-cleavage was found to be 0.0462.
The same measure for C18A U37G: 0.185.
As for G17U G76C, the self-cleavage was 0.751.
For the variant C18U C48G, the self-cleavage amounted to 0.683.
As to C18U C48U, the self-cleavage turned out to be 0.639.
The same measure for C18A G52U: 0.237; for C18A G52A: 0.196.
In the case of C18A C85G, the self-cleavage is 0.0475.
As to C18G A87G, the self-cleavage worked out at 0.12.
The same measure for C18G A87U: 0.154.
With G17U G50U, the self-cleavage is 0.609.
In the case of G17C G80A, the self-cleavage is 0.0252.
G17C G80U: the self-cleavage is 0.0588.
For C19A A56G, the self-cleavage amounted to 0.256.
The same measure for C18A U69A: 0.19.
In the case of G17U U27C, the self-cleavage is 0.308.
Regarding C18G A78C, the self-cleavage is 0.
Regarding C18G A78G, the self-cleavage was 0.
As for C18G G59C, the self-cleavage is 0.26.
The same measure for C19G C85G: 0.111; for C18G C86U: 0.0875.
Turning to C18U U27C, the self-cleavage amounted to 0.268.
In the case of C18U U27A, the self-cleavage is 0.95.
As for G17U G40U, the self-cleavage was determined as 0.381.
As to C18G A71G, the self-cleavage was determined as 0.
On to C18G G31A, for which the self-cleavage was 0.0811.
Then C18U C75A, with 0.366; and C19A G54U, with 0.201.
As to C19A G54C, the self-cleavage was 0.0817.
For C18G G52C, the self-cleavage stood at 0.0554.
For C19G A83C, the self-cleavage came out at 0.
Turning to C18U G35C, the self-cleavage was 0.119.
In the case of G17U C63U, the self-cleavage was 0.47.
As to C19G A42G, the self-cleavage is 0.
As for C19A G53A, the self-cleavage was 0.149.
The same measure for C19A G53U: 0.157; for C18G C41G: 0.266; for C18U G50C: 0.705.
Turning to C18U G50U, the self-cleavage stood at 0.639.
As to C18U U46A, the self-cleavage worked out at 0.291.
On to C19A U20A, for which the self-cleavage turned out to be 0.0234.
Take G17U G82U: the self-cleavage was 0.361.
Then G17U G82C, with 0.269.
In the case of C18A C61A, the self-cleavage is 0.0615.
The same measure for C18A C61G: 0.172; for C18U U69A: 0.397.
In the case of C18U U69C, the self-cleavage is 0.878.
For the variant C18U A71C, the self-cleavage stood at 0.259.
The same measure for C18U A71U: 0.724; for C18A U47G: 0.
The same measure for C18U G55C: 0.893.
As to C18U G53A, the self-cleavage turned out to be 0.639.
C18U G53C: the self-cleavage turned out to be 0.607.
Then C18U G68A, with 0.739; and C18U A43G, with 0.17; and C18U A43C, with 0.295.
Then C18A U27C, with 0.135; and C18A U27G, with 0.115; and C18A C26U, with 0.312.
Turning to C18A C26G, the self-cleavage stood at 0.119.
Take C18A C26A: the self-cleavage stood at 0.244.
Regarding C19A G81U, the self-cleavage was determined as 0.133.
For C19G G68C, the self-cleavage worked out at 0.0875.
Turning to C18G C22G, the self-cleavage is 0.0755.
On to G17U C86G, for which the self-cleavage was found to be 0.583.
The same measure for C19G C41G: 0.0573; for C18A G25C: 0.0405; for C18A G25A: 0.133.
In the case of G17U G34A, the self-cleavage came out at 0.13.
C19G G55C: the self-cleavage is 0.0475.
Turning to C19G G55A, the self-cleavage was determined as 0.0346.
Take G17U C57A: the self-cleavage was determined as 0.689.
Take C19G C48A: the self-cleavage was 0.115.
As for C19G C48U, the self-cleavage came to 0.0733.
The same measure for G17C U27C: 0; for C18A C66G: 0.0639.
With C18G U65A, the self-cleavage was found to be 0.138.
Then C18G G25U, with 0.0386; and C19G A45G, with 0.106; and C18G C19G, with 0.
The same measure for C18U A87U: 0.853; for C18G G55A: 0.145.
For the variant C19G G25U, the self-cleavage worked out at 0.0923.
Turning to C19A G52U, the self-cleavage amounted to 0.149.
For the variant G17U C36U, the self-cleavage was 0.166.
With G17U A56G, the self-cleavage was 0.609.
On to C18U G73C, for which the self-cleavage turned out to be 0.217.
As to C19A A77G, the self-cleavage is 0.0302.
For C19G C86G, the self-cleavage was found to be 0.104.
As to C19G C86A, the self-cleavage was 0.
For the variant C19A C32A, the self-cleavage was found to be 0.0604.
The same measure for C19G G34A: 0.248; for C19G G34C: 0.0978; for C18A C75G: 0.133.
On to C18G A56C, for which the self-cleavage is 0.0755.
As to C18U C85U, the self-cleavage amounted to 0.582.
For the variant C19G C36U, the self-cleavage came out at 0.0767.
With G17C U20C, the self-cleavage is 0.
Take C18A G34U: the self-cleavage worked out at 0.0489.
For the variant C18U C49G, the self-cleavage worked out at 0.723.
For C18U C49A, the self-cleavage amounted to 0.623.
As for C19G G40U, the self-cleavage was 0.0997.
Then C18U C61G, with 0.53.
Turning to C18U C61A, the self-cleavage came to 0.709.
The same measure for G17U C26G: 0.608; for G17U C26U: 0.654; for C18G C63G: 0.199.
Consider G17U G59A, for which the self-cleavage was found to be 0.465.
Then G17C G81C, with 0.0898; and G17C G81A, with 0.0978.
Then G17C G74U, with 0.0554; and C18G C64U, with 0.147; and C18G C64G, with 0.156.
Take C18G G28U: the self-cleavage was determined as 0.0405.
Then C19A U46A, with 0.0707; and C18U G80U, with 0.0989; and G17U C30A, with 0.831.
G17U C30G: the self-cleavage worked out at 0.486.
Turning to C18U C32G, the self-cleavage is 0.032.
The same measure for G17U C64G: 0.495; for C18A C33U: 0.0489.
As for C18A A45C, the self-cleavage was 0.208.
Turning to C19A A42G, the self-cleavage was determined as 0.0811.
On to C18A C62A, for which the self-cleavage was found to be 0.102.
Consider C18A U23C, for which the self-cleavage was determined as 0.
For the variant G17U G29A, the self-cleavage turned out to be 0.0314.
Then C18U G29U, with 0.0639.
Take C18U G29A: the self-cleavage is 1.06.
With C18A A42G, the self-cleavage was found to be 0.102.
Turning to C18A C36A, the self-cleavage turned out to be 0.0361.
With C18A C36G, the self-cleavage is 0.
In the case of C18A G28C, the self-cleavage was 0.095.
The same measure for C18U G74C: 0.0519; for C18U G74U: 0.166.
Turning to C19A G34C, the self-cleavage stood at 0.0739.
With C19A G34A, the self-cleavage worked out at 0.0755.
With C18G C75U, the self-cleavage amounted to 0.0615.
For the variant C18G C75A, the self-cleavage was 0.
Take C18U G59C: the self-cleavage is 0.651.
In the case of C18G G50A, the self-cleavage came to 0.138.
Then C18G G50U, with 0.196; and C19A U69C, with 0.146; and C18G G54C, with 0.0475.
Take C18G G54A: the self-cleavage is 0.125.
C18G U46C: the self-cleavage is 0.
C19A C48A: the self-cleavage stood at 0.0934.
In the case of C19A C48G, the self-cleavage was 0.22.
In the case of C19A C48U, the self-cleavage worked out at 0.0683.
The same measure for C19G G31A: 0.0554; for C18U A56G: 0.719.
Regarding C18U A56C, the self-cleavage worked out at 0.628.
On to C18U A56U, for which the self-cleavage is 0.745.
Take C18U C26A: the self-cleavage amounted to 0.591.
Regarding C18U C26U, the self-cleavage turned out to be 0.848.
As for C18U G82U, the self-cleavage was determined as 0.111.
For the variant C19G C58G, the self-cleavage was determined as 0.0739.
For C19A C58A, the self-cleavage came out at 0.095.
Then C18U A78U, with 0.0707; and C18U A78G, with 0.285.
As to C18U C30U, the self-cleavage amounted to 0.185.
The same measure for C19A C63A: 0.153.
For G17U G38C, the self-cleavage worked out at 0.0997.
The same measure for G17U C48G: 0.482; for G17U U79A: 0.755.
With G17U U79C, the self-cleavage was found to be 0.584.
With G17U U79G, the self-cleavage was 0.406.
As to C19G C62G, the self-cleavage is 0.0791.
